Earlier results on one substance are cited in patent publication US10888616B2 (Latitude Pharmaceuticals, Inc., priority 2015, dated 2021).

The conditions of data set [1]: acidic solution (pH 2-4), within 24 hours at 37° C.

In the case of “Glucagon: single-chain polypeptide of 29 amino acid residues, sequence in FIG. 1 (SEQ ID NO: 1)”, the “solubility in pure water or alcohol” value is recorded as “insoluble”. The gelling in water entry (pH 3 or lower) is reported as “will aggregate to form a gel within hours”. In addition, for the setting “physiological pH (pH 4-8)”, the solubility in water entry is recorded as “insoluble”. In data set [1], the “glucagon broken down into degradation products” value was 5-70%.
